These results are taken from FireProtDB (doi:10.1038/9384).

The conditions of the data set: Bos taurus; pH 5.3; 5 °C; GdnHCl; Fluorescence; Sodium acetate 0.02 M; whole UniProt chain shown.

B1: Acyl-CoA-binding protein wild type, P07107 (protein)
chain: MSQAEFDKAAEEVKHLKTKPADEEMLFIYSHYKQATVGDINTERPGMLDFKGKAKWDAWNELKGTSKEDAMKAYIDKVEELKKKYGI
Take B1: the denaturant m value turned out to be 3.53 kcal/mol/M and the unfolding free energy was 8.08 kcal/mol.
